Measured values: the RNAGym collection of RNA variant scans (doi:10.1073/pnas.2313332121)

B1: TPR t1 (parent)
chain: GACCAAUCUGCCCUCAGAGCUCGAGAACAUCUUCGGAUGCAGAGGAGGCAGGCUUCGGUGGCGCGAUAGCGCCAACGUCCUCAACCUCCAAUGCAUCCCACCACAUGAUGAUGCCUGAAGAGCCUUGGUUUUUUG

Variants of: B1
Assay: polymerase ribozyme fitness, log enrichment relative to wild type (log ratio); higher = more active; in vitro selection for triplet polymerase activity
Procedure, shortened: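 In triplicate, a single round of in vitro selection was run on each mutant library, PCR-built and transcribed, covering one subunit of a heterodimeric triplet polymerase ribozyme. Frozen incubation at −7 °C followed annealing with a biotinylated primer, partner subunit and triplets, and extended constructs were then gel-excised, streptavidin-captured and taken through RT-PCR. Fitness is the logarithm of genotype enrichment over wild-type enrichment, from inverse-variance-weighted replicate averages of Illumina-sequenced inputs and outputs. […] only genotypes with ≥10 input reads and ≥1 read per output were kept.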

| Variant | polymerase ribozyme fitness (log ratio) |
| --- | --- |
| C20U G42U C56A C115G | -3.91 |
| C20G A41U C104A G113A U132C | -5.25 |
| U21A A50C A68G | -6.32 |
| U21A A41U C70U A95U | -4.21 |
| C20U G35U | -5.32 |
| C20U A29G C49A G58A A74U U81A U112A | -3.14 |
| C20G G135U | -4.02 |
| U21A A50U G61U U130A | -1.97 |
| C20A G48U U55C | -3.81 |
| C20U A24U U32C C85U C101G G110U | -6.93 |
| U21A G51A G57U | -2.59 |
| C20A G52C C72A | -2.79 |
| C20U C70U G113U G120U | -3.51 |
| U21A C53U A74C | -0.636 |
| C20G G47C | -5.65 |
| C20A G42C | -4.12 |
| C20U U116G | -4.59 |
| C20G A46U G120A | -4.96 |
| U21A U38G C56A | -1.66 |
| C20A G110U | -3.99 |
| C20U G93A C101G G113C | -4.09 |
| U21A U59C C123A G128C | -2.93 |
| C20G C31U G35U U109G | -4.7 |
| C20U C76G C89U C104A C115U | -5.63 |

| Variant | polymerase ribozyme fitness (log ratio) |
| --- | --- |
| C20U A50U A83C | -5.22 |
| C20G U54G C73A C89G A100C | -5.53 |
| C20U C86A | -2.3 |
| C20U A29G G61U C115A U116C G117U | -1.83 |
| C20U G57C C104A | -2.45 |
| U21A G42A A46U G60A | -4.47 |
| C20U G47A C49G C123A U125G | -2.77 |
| C20U G48U G57U G60A | -2.57 |
| C20U G35C G60U | -5.9 |
| C20G A41U C73G U87C U92A C123G | -4.71 |
| U21A A26U | -4.35 |
| U21A G63U | -1.92 |
| C20U C64U | -1.68 |
| C20G U106A | -4.68 |
| C20U A43U C53G | -2.28 |
| C20G G52C A95G C102A C115U | -6.79 |
| C20A G39A G77U A121G | -1.8 |
| C20G A24G G45C C73A C88A C115U | -5.98 |
| U21A G61A C88A G110A | -4.74 |
| C20A G61C A121G G128U | -5.15 |
| C20A U32A G35C G71U C115A | -5.14 |
| C20U A83C | -1.52 |
| C20G A118G | -5.96 |
| U21A A41U G60A U96A | -4.01 |

| Variant | polymerase ribozyme fitness (log ratio) |
| --- | --- |
| U21A C70A C86U A111C | -5.59 |
| U21A G60U A83U U126C | -0.934 |
| C20A G42U G47U C53U G120U | -3.98 |
| C20A G127C | -2.94 |
| C20A G65A C94G A105G G110A U125G G128U | -5.13 |
| U21A C28U A37G G61U | -4.5 |
| C20G C56G A95C G117U C124A | -3.93 |
| C20U A24U G60C G63C G69A U81G C98G U109G | -6.52 |
| C20U A26C C89U C124A | -4.83 |
| U21A C72G G77C C85A | -3.48 |
| C20U C53A | -3.19 |
| C20U U112A G120A | -0.897 |
| U21A A24G G36U G61C G120U U132A | -3.58 |
| C20G G120C | -2.75 |
| C20U C73A A95U U106A G122A | -4.57 |
| C20U U78A C85U | -2.54 |
| C20U U33G | -6.55 |
| C20G A41U C56G G63C A95U A119U | -5.15 |
| C20U G60C C99U | -4.59 |
| U21A C56U G57C | -0.599 |
| U21A A95G G117U | -1.3 |
| C20U C80U C82G C85G | -3.74 |
| C20G C62A C98A G110C C114A | -8.01 |
| C20U G52A G60A U96A | -3.48 |

| Variant | polymerase ribozyme fitness (log ratio) |
| --- | --- |
| C20U C76U G93C | -3.66 |
| C20U G122A | -2.04 |
| U21A G44A G113C | -3.04 |
| C20G G58A C89G G117U | -4.04 |
| C20G G60C | -4.55 |
| C20U C49U C62U G69A | -5.65 |
| C20G C115U A121C | -6.48 |
| C20U G77A A84U U112G | -2.88 |
| C20A G60C | -3.33 |
| U21A A27U U92A | -7.38 |
| U21A G42U G63C C82A | -3.34 |
| C20U G45U A100U | -3.67 |
| C20U G63C A84C A105U | -4.52 |
| C20U G120U | -1.57 |
| C20U A90U G110U | -4.33 |
| C20G A29G C88U U106A | -5.14 |
| C20G G42U G113C | -3.64 |
| C20U C40U G61U U96G C115G U134A | -3.07 |
| C20U G52A G120A | -1.57 |
| C20U G45U A50C G77A U78C A84U C123A | -3.79 |
| C20G A75U | -4.41 |
| C20G A43C C53A A119G | -5.03 |
| C20G U32C G48C G120A U130A | -5.95 |
| C20A U112A | 0.09 |

| Variant | polymerase ribozyme fitness (log ratio) |
| --- | --- |
| C20U C56U G63C C94A G120C | -3.97 |
| C20A U54G C94U | -3.21 |
| C20G G63A C102A U106C G120A U126A | -7.38 |
| C20U G60U G110A | -3.8 |
| C20G C56G | -4.45 |
| C20U C101U | -1.97 |
| C20G C64A C98U A105C C114U U116A | -6.79 |
| C20G G44C C73U U78A A95C | -6.9 |
| C20G A46U A118G | -5.92 |
| U21A U54C G61A A111G C123U | -5.38 |
| C20U A29C G120A | -3.64 |
| C20G C89G C98A G120C | -2.55 |
| C20U C34G A43U C70U C82U C114A | -7.14 |
| C20U U96G C123G U129A | -1.64 |
| C20U G52C U78A C102U C124U | -2.94 |
| C20U U55G G69U C99A | -3.12 |
| C20A G39U | -4.11 |
| C20U C40A G69C C94G G120U | -5.2 |
| C20U A46U C89U | -3.4 |
| C20G C85G | -3.76 |
| U21A A91U | -2.43 |
| U21A C80U | -0.894 |
| C20G C76A | -4.94 |
| C20U U109A | -4.34 |

| Variant | polymerase ribozyme fitness (log ratio) |
| --- | --- |
| C20U C22A A50C G69U | -2.32 |
| C20U C73G G113U U130A U131C | -3.02 |
| C20G A90C C98U C124A U126A | -4.21 |
| C20U A50U U55G C76U U112C G127A | -4.02 |
| C20U G35A G61A A111C | -5.53 |
| U21A G69U | 0.577 |
| C20U A37U C56U | -1.39 |
| C20U G45A G117U G127C U130G | -4.33 |
| C20U G61C G93C | -3.53 |
| C20U C85U | -2.85 |
| C20U G52C C114A C123U | -4.27 |
| U21A U112A | 1.06 |
| C20U C62A G93A U129A | -4.93 |
| C20G U55G C72U A119G | -2.6 |
| C20U C62U C94U | -2.47 |
| C20A U106C | -2.55 |
| C20G A41C C73A U78A A84C C123U U133G | -3.7 |
| C20U G42U C56A A74U C115G | -4.76 |
| U21A U116G G122U C124G U126A | -1.21 |
| U21A C49U | -1.1 |
| U21A C62G C73U | -2.55 |
| C20U G60C | -1.73 |
| U21A G77A | 0.00839 |
| U21A C88G | -0.967 |

| Variant | polymerase ribozyme fitness (log ratio) |
| --- | --- |
| C20G A46U C62U C114U | -3.55 |
| C20U A26C G52A G69A C72G A118G G120C U126G | -6.5 |
| C20U U54A | -0.906 |
| C20U G113U | -0.99 |
| C20U G69A G120U | -4.11 |
| C20U G44A G45U | -3.42 |
| U21A A74C C98A C114G U133G | -7.51 |
| C20U C70U C88A U106C | -2.34 |
| C20U C72A C102U U109A C114A U133G | -5.73 |
| C20G A91C C114U | -2.15 |
| C20U C53A A111G C114U | -7.62 |
| C20G G69U C99A | -4.6 |
| C20A G122A C123G | -0.681 |
| C20U A90U G93A | -2.41 |
| C20U G117A | -2.72 |
| C20G C53U G113U | -0.634 |
| U21A G42U G60C | -2.45 |
| C20U C53U G113C | -1.84 |
| C20U C72A A83G G113U | -2.08 |
| U21A A43C G63C | -4.13 |
| C20A G52U C62U U96G G120A | -3.86 |
| C20U C64U C85G C94G | -3.93 |
| U21A U38G U54C U59A | -1.06 |
